T1: FcγRIIb extracellular domain with C-terminal His tag (human, UniProt P31994 43-217)
T1 construct: extracellular domain; expressed in FreeStyle293 cells; analyte in Biacore; also called FcgRIIb; 2b
T1 sequence (looked up): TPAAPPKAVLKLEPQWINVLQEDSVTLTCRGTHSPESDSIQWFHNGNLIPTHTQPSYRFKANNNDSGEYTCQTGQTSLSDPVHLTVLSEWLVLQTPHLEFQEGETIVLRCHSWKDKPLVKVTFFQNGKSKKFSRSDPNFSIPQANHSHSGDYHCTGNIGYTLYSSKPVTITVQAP


Assays:
[1] = biological target: T2, FcγRIa extracellular domain with C-terminal His tag (human, UniProt P12314 16-292); assay: SPR (Biacore), captured antibody, FcγR as analyte; relative binding
T2 construct: extracellular domain; expressed in FreeStyle293 cells; analyte in Biacore; also called FcgRI; 1a

[2] = biological target: T1, FcγRIIb extracellular domain with …; assay: as above
FcγRIa = biological target: T3, FcγRIa (human, UniProt P12314 16-292); assay: SPR (Biacore); He Ab relative to HeCon Ab = 100
T3 construct: extracellular domain; also called FcgRI; 1a
Procedure: Analysis of interaction between objective antibody and the FcγR was carried out using Biacore T100 (GE Healthcare). HBS-EP+ (GE Healthcare) was used as the running buffer, and the measurement temperature was set to 25° C. Chips produced by immobilizing the antigen peptide by the amine coupling method to a Series S Sencor Chip CM5 (GE Healthcare), or alternatively, chips produced by allowing preliminarily biotinylated antigen peptides to interact with and immobilize onto a Series S Sensor Chip SA (certified) (GE Healthcare) were used. Antibodies of interest were captured onto an antigen peptide-immobilized chip, and allowed to interact to each FcγR diluted with running buffer. To regenerate and repeatedly use the chip, the antibodies captured on the chip were washed off by reacting 10 mM glycine-HCl, pH 1.5.

T2 sequence (P12314 16-292): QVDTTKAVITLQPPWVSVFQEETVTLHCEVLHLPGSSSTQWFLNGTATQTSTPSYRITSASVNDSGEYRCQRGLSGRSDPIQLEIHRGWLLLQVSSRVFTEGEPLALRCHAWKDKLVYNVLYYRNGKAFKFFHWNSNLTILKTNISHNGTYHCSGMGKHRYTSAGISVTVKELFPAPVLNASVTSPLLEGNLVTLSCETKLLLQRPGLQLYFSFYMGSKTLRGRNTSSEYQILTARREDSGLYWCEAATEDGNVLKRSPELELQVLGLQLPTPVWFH
T3 sequence (P12314 16-292): as above

Row | Binder | He/Con_1a [1] | He/Con_2b [2] | He/Con_1a (FcγRIa)
1 | GpH7-A5/GpH7-B3 variant Q295_10E/GpL16-k0 (antibody, human IgG1, kappa, He Ab; IgG1, mutation in one H chain) heavy 1: not shown heavy 2: not shown light: DIVMTQSPLSLPVTPGEPASISCQASESLVHSNRNTYLHWYLQKPGQSPQLLIYKVSNRFSGVPDRFSGSGSGTDFTLKISRVEAEDVGVYYCSQNTHVPPTFGQGTKVEIERTVAAPSVFIFPPSDEQLKSGTASVVCLLNNFYPREAKVQWKVDNALQSGNSQESVTEQDSKDSTYSLSSTLTLSKADYEKHKVYACEVTHQGLSSPVTKSFNRGEC | 103 % of HeCon Ab (GpH7-A5/GpH7-B3/GpL16-k0 = 100) | 94.8 % of HeCon Ab (GpH7-A5/GpH7-B3/GpL16-k0 = 100) | –
2 | GpH7-A5/GpH7-B3 variant P329_01G/GpL16-k0 (antibody, human IgG1, kappa, also called He Ab P329_01G) heavy 1: not shown heavy 2: not shown light: DIVMTQSPLSLPVTPGEPASISCQASESLVHSNRNTYLHWYLQKPGQSPQLLIYKVSNRFSGVPDRFSGSGSGTDFTLKISRVEAEDVGVYYCSQNTHVPPTFGQGTKVEIERTVAAPSVFIFPPSDEQLKSGTASVVCLLNNFYPREAKVQWKVDNALQSGNSQESVTEQDSKDSTYSLSSTLTLSKADYEKHKVYACEVTHQGLSSPVTKSFNRGEC | – | – | 101 % of control
3 | GpH7-A5/GpH7-B3 variant Q295_11K/GpL16-k0 (antibody, human IgG1, kappa, also called He Ab Q295_11K) heavy 1: not shown heavy 2: not shown light: DIVMTQSPLSLPVTPGEPASISCQASESLVHSNRNTYLHWYLQKPGQSPQLLIYKVSNRFSGVPDRFSGSGSGTDFTLKISRVEAEDVGVYYCSQNTHVPPTFGQGTKVEIERTVAAPSVFIFPPSDEQLKSGTASVVCLLNNFYPREAKVQWKVDNALQSGNSQESVTEQDSKDSTYSLSSTLTLSKADYEKHKVYACEVTHQGLSSPVTKSFNRGEC | – | – | 101 % of control
4 | GpH7-A5/GpH7-B3 variant P329_02A/GpL16-k0 (antibody, human IgG1, kappa, also called He Ab P329_02A) heavy 1: not shown heavy 2: not shown light: DIVMTQSPLSLPVTPGEPASISCQASESLVHSNRNTYLHWYLQKPGQSPQLLIYKVSNRFSGVPDRFSGSGSGTDFTLKISRVEAEDVGVYYCSQNTHVPPTFGQGTKVEIERTVAAPSVFIFPPSDEQLKSGTASVVCLLNNFYPREAKVQWKVDNALQSGNSQESVTEQDSKDSTYSLSSTLTLSKADYEKHKVYACEVTHQGLSSPVTKSFNRGEC | – | – | 102 % of control
5 | GpH7-A5/GpH7-B3 variant P271_15Y/GpL16-k0 (antibody, human IgG1, kappa, also called He Ab P271_15Y) heavy 1: not shown heavy 2: not shown light: DIVMTQSPLSLPVTPGEPASISCQASESLVHSNRNTYLHWYLQKPGQSPQLLIYKVSNRFSGVPDRFSGSGSGTDFTLKISRVEAEDVGVYYCSQNTHVPPTFGQGTKVEIERTVAAPSVFIFPPSDEQLKSGTASVVCLLNNFYPREAKVQWKVDNALQSGNSQESVTEQDSKDSTYSLSSTLTLSKADYEKHKVYACEVTHQGLSSPVTKSFNRGEC | – | – | 103 % of control

More lines, now with the values ahead:

Row | He/Con_1a [1] | He/Con_2b [2] | He/Con_1a (FcγRIa) | Binder
6 | – | – | 102 % of control | GpH7-A5/GpH7-B3 variant Q295_16H/GpL16-k0 (antibody, human IgG1, kappa, also called He Ab Q295_16H) heavy 1: not shown heavy 2: not shown light: DIVMTQSPLSLPVTPGEPASISCQASESLVHSNRNTYLHWYLQKPGQSPQLLIYKVSNRFSGVPDRFSGSGSGTDFTLKISRVEAEDVGVYYCSQNTHVPPTFGQGTKVEIERTVAAPSVFIFPPSDEQLKSGTASVVCLLNNFYPREAKVQWKVDNALQSGNSQESVTEQDSKDSTYSLSSTLTLSKADYEKHKVYACEVTHQGLSSPVTKSFNRGEC
7 | 101 % of HeCon Ab (GpH7-A5/GpH7-B3/GpL16-k0 = 100) | 70.4 % of HeCon Ab (GpH7-A5/GpH7-B3/GpL16-k0 = 100) | – | GpH7-A5/GpH7-B3 variant Q295_11K/GpL16-k0 (antibody, human IgG1, kappa, He Ab; IgG1, mutation in one H chain) heavy 1: not shown heavy 2: not shown light: DIVMTQSPLSLPVTPGEPASISCQASESLVHSNRNTYLHWYLQKPGQSPQLLIYKVSNRFSGVPDRFSGSGSGTDFTLKISRVEAEDVGVYYCSQNTHVPPTFGQGTKVEIERTVAAPSVFIFPPSDEQLKSGTASVVCLLNNFYPREAKVQWKVDNALQSGNSQESVTEQDSKDSTYSLSSTLTLSKADYEKHKVYACEVTHQGLSSPVTKSFNRGEC
8 | – | – | 102 % of control | GpH7-A5/GpH7-B3 variant Q295_15Y/GpL16-k0 (antibody, human IgG1, kappa, also called He Ab Q295_15Y) heavy 1: not shown heavy 2: not shown light: DIVMTQSPLSLPVTPGEPASISCQASESLVHSNRNTYLHWYLQKPGQSPQLLIYKVSNRFSGVPDRFSGSGSGTDFTLKISRVEAEDVGVYYCSQNTHVPPTFGQGTKVEIERTVAAPSVFIFPPSDEQLKSGTASVVCLLNNFYPREAKVQWKVDNALQSGNSQESVTEQDSKDSTYSLSSTLTLSKADYEKHKVYACEVTHQGLSSPVTKSFNRGEC
9 | 103 % of HeCon Ab (GpH7-A5/GpH7-B3/GpL16-k0 = 100) | 66.8 % of HeCon Ab (GpH7-A5/GpH7-B3/GpL16-k0 = 100) | – | GpH7-A5/GpH7-B3 variant Q295_14T/GpL16-k0 (antibody, human IgG1, kappa, He Ab; IgG1, mutation in one H chain) heavy 1: not shown heavy 2: not shown light: DIVMTQSPLSLPVTPGEPASISCQASESLVHSNRNTYLHWYLQKPGQSPQLLIYKVSNRFSGVPDRFSGSGSGTDFTLKISRVEAEDVGVYYCSQNTHVPPTFGQGTKVEIERTVAAPSVFIFPPSDEQLKSGTASVVCLLNNFYPREAKVQWKVDNALQSGNSQESVTEQDSKDSTYSLSSTLTLSKADYEKHKVYACEVTHQGLSSPVTKSFNRGEC
10 | 102 % of HeCon Ab (GpH7-A5/GpH7-B3/GpL16-k0 = 100) | 65.4 % of HeCon Ab (GpH7-A5/GpH7-B3/GpL16-k0 = 100) | – | GpH7-A5/GpH7-B3 variant Q295_15Y/GpL16-k0 (antibody, human IgG1, kappa, He Ab; IgG1, mutation in one H chain) heavy 1: not shown heavy 2: not shown light: DIVMTQSPLSLPVTPGEPASISCQASESLVHSNRNTYLHWYLQKPGQSPQLLIYKVSNRFSGVPDRFSGSGSGTDFTLKISRVEAEDVGVYYCSQNTHVPPTFGQGTKVEIERTVAAPSVFIFPPSDEQLKSGTASVVCLLNNFYPREAKVQWKVDNALQSGNSQESVTEQDSKDSTYSLSSTLTLSKADYEKHKVYACEVTHQGLSSPVTKSFNRGEC

— patent publication US20150344570A1 (published 2015)
